Experimental data taken from patent publication US20200377590A1 (Hoffmann-La Roche, published 2020).
Where a chain is given by its changes, count along the chain named.

B1: CD81K13 HC 03-hVH_1_69 / LC 05-hVK_1_39 (antibody, V domains shown)
VH: QVQLVQSGAEVKKPGSSVKVSCKASGFNFKDSYLHWVRQAPGQGLEWMGRIDTGNGNVKYAQKFQGRVTITADESTSTAYMELSSLRSEDTAVYYCAPYGYGFHSWGQGTLVTVSS
VL: DIQMTQSPSSLSASVGDRVTITCRASENIYRTLAWYQQKPGKAPKLLIYAATTLASGVPSRFSGSGSGTDFTLTISSLQPEDFATYYCQHFWGTPWTFGQGTKVEIK
notes: human constant region
B2: CD81K13 HC 03-hVH_1_69 / LC 5b-hVK_1_39 (antibody, V domains shown)
VH: B1 VH
VL: B1 VL with A50G, S56D
notes: human constant region
B3: CD81K13 HC 03-hVH_1_69 / LC 5b-hVK_1_39-GA (antibody, V domains shown)
VH: B1 VH
VL: B1 VL with A50G, S56D
notes: human constant region
B4: CD81K13 HC 03-hVH_1_69 / LC 06-hVK_1_39 (antibody, V domains shown)
VH: B1 VH
VL: B1 VL with A84G
notes: human constant region
B5: CD81K13 HC 05-hVH_1_69 / LC 03-hVK_1_9 (antibody, V domains shown)
VH: B1 VH with Y60F, A61D, Q62P, A72T, A97V
VL: B1 VL with M4L, S10F, D70E
notes: human constant region
B6: CD81K13 HC 05-hVH_1_69 / LC 04-hVK_1_9 (antibody, V domains shown)
VH: B1 VH with Y60F, A61D, Q62P, A72T, A97V
VL: B1 VL with M4L, S10F, D70E, A84G
notes: human constant region
B7: CD81K13 HC 05-hVH_1_69 / LC 5b-hVK_1_39 (antibody, V domains shown)
VH: B1 VH with Y60F, A61D, Q62P, A72T, A97V
VL: B1 VL with A50G, S56D
notes: human constant region
B8: CD81K13 HC 05-hVH_1_69 / LC 5b-hVK_1_39-GA (antibody, V domains shown)
VH: B1 VH with Y60F, A61D, Q62P, A72T, A97V
VL: B1 VL with A50G, S56D
notes: human constant region
B9: CD81K13 HC 05-hVH_1_69 / LC 06-hVK_1_39 (antibody, V domains shown)
VH: B1 VH with Y60F, A61D, Q62P, A72T, A97V
VL: B1 VL with A84G
notes: human constant region
B10: CD81K13 HC 5b-hVH_1_69 / LC 03-hVK_1_9 (antibody, V domains shown)
VH: B1 VH with V11L, K12V, Y60F, A61D, Q62P, A72T, A97V
VL: B1 VL with M4L, S10F, D70E
notes: human constant region
B11: CD81K13 HC 5b-hVH_1_69 / LC 04-hVK_1_9 (antibody, V domains shown)
VH: B1 VH with V11L, K12V, Y60F, A61D, Q62P, A72T, A97V
VL: B1 VL with M4L, S10F, D70E, A84G
notes: human constant region
B12: CD81K13 HC 5b-hVH_1_69 / LC 05-hVK_1_39 (antibody, V domains shown)
VH: B1 VH with V11L, K12V, Y60F, A61D, Q62P, A72T, A97V
VL: B1 VL
notes: human constant region
B13: CD81K13 HC 5b-hVH_1_69 / LC 5b-hVK_1_39 (antibody, V domains shown)
VH: B1 VH with V11L, K12V, Y60F, A61D, Q62P, A72T, A97V
VL: B1 VL with A50G, S56D
notes: human constant region
B14: CD81K13 HC 5b-hVH_1_69 / LC 5b-hVK_1_39-GA (antibody, V domains shown)
VH: B1 VH with V11L, K12V, Y60F, A61D, Q62P, A72T, A97V
VL: B1 VL with A50G, S56D
notes: human constant region
B15: CD81K13 HC 5b-hVH_1_69 / LC 06-hVK_1_39 (antibody, V domains shown)
VH: B1 VH with V11L, K12V, Y60F, A61D, Q62P, A72T, A97V
VL: B1 VL with A84G
notes: human constant region
B16: CD81K13 HC 5b-hVH_1_69 / LC 07-hVK_1_27 (antibody, V domains shown)
VH: B1 VH with V11L, K12V, Y60F, A61D, Q62P, A72T, A97V
VL: B1 VL with A43V, F83V, A84G, H90K
notes: human constant region
B17: CD81K13 HC 5b-hVH_1_69-GA / LC 03-hVK_1_9 (antibody, V domains shown)
VH: B1 VH with V11L, K12V, Y60F, A61D, Q62P, A72T, A97V
VL: B1 VL with M4L, S10F, D70E
notes: human constant region
B18: CD81K13 HC 5b-hVH_1_69-GA / LC 04-hVK_1_9 (antibody, V domains shown)
VH: B1 VH with V11L, K12V, Y60F, A61D, Q62P, A72T, A97V
VL: B1 VL with M4L, S10F, D70E, A84G
notes: human constant region
B19: CD81K13 HC 5b-hVH_1_69-GA / LC 05-hVK_1_39 (antibody, V domains shown)
VH: B1 VH with V11L, K12V, Y60F, A61D, Q62P, A72T, A97V
VL: B1 VL
notes: human constant region
B20: CD81K13 HC 5b-hVH_1_69-GA / LC 5b-hVK_1_39 (antibody, V domains shown)
VH: B1 VH with V11L, K12V, Y60F, A61D, Q62P, A72T, A97V
VL: B1 VL with A50G, S56D
notes: human constant region
B21: CD81K13 HC 5b-hVH_1_69-GA / LC 5b-hVK_1_39-GA (antibody, V domains shown)
VH: B1 VH with V11L, K12V, Y60F, A61D, Q62P, A72T, A97V
VL: B1 VL with A50G, S56D
notes: human constant region
B22: CD81K13 HC 5b-hVH_1_69-GA / LC 06-hVK_1_39 (antibody, V domains shown)
VH: B1 VH with V11L, K12V, Y60F, A61D, Q62P, A72T, A97V
VL: B1 VL with A84G
notes: human constant region
B23: CD81K13 HC 5b-hVH_1_69-GA / LC 07-hVK_1_27 (antibody, V domains shown)
VH: B1 VH with V11L, K12V, Y60F, A61D, Q62P, A72T, A97V
VL: B1 VL with A43V, F83V, A84G, H90K
notes: human constant region
B24: CD81K13 HC 06-hVH_1_3 / LC 03-hVK_1_9 (antibody, V domains shown)
VH: B1 VH with S16A, F27Y, N28T, G44R, Y60F, A61D, Q62P, A72T, E74T, T76A
VL: B1 VL with M4L, S10F, D70E
notes: human constant region
B25: CD81K13 HC 06-hVH_1_3 / LC 04-hVK_1_9 (antibody, V domains shown)
VH: B1 VH with S16A, F27Y, N28T, G44R, Y60F, A61D, Q62P, A72T, E74T, T76A
VL: B1 VL with M4L, S10F, D70E, A84G
notes: human constant region
B26: CD81K13 HC 06-hVH_1_3 / LC 05-hVK_1_39 (antibody, V domains shown)
VH: B1 VH with S16A, F27Y, N28T, G44R, Y60F, A61D, Q62P, A72T, E74T, T76A
VL: B1 VL
notes: human constant region
B27: CD81K13 HC 06-hVH_1_3 / LC 5b-hVK_1_39 (antibody, V domains shown)
VH: B1 VH with S16A, F27Y, N28T, G44R, Y60F, A61D, Q62P, A72T, E74T, T76A
VL: B1 VL with A50G, S56D
notes: human constant region
B28: CD81K13 HC 06-hVH_1_3 / LC 5b-hVK_1_39-GA (antibody, V domains shown)
VH: B1 VH with S16A, F27Y, N28T, G44R, Y60F, A61D, Q62P, A72T, E74T, T76A
VL: B1 VL with A50G, S56D
notes: human constant region
B29: CD81K13 HC 06-hVH_1_3 / LC 06-hVK_1_39 (antibody, V domains shown)
VH: B1 VH with S16A, F27Y, N28T, G44R, Y60F, A61D, Q62P, A72T, E74T, T76A
VL: B1 VL with A84G
notes: human constant region
B30: CD81K13 HC 06-hVH_1_3 / LC 07-hVK_1_27 (antibody, V domains shown)
VH: B1 VH with S16A, F27Y, N28T, G44R, Y60F, A61D, Q62P, A72T, E74T, T76A
VL: B1 VL with A43V, F83V, A84G, H90K
notes: human constant region
B31: CD81K13 HC 07-hVH_1_3 / LC 03-hVK_1_9 (antibody, V domains shown)
VH: B1 VH with S16A, F27Y, N28T, Y60F, A61D, Q62P, A72T, E74T, T76A
VL: B1 VL with M4L, S10F, D70E
notes: human constant region
B32: CD81K13 HC 07-hVH_1_3 / LC 04-hVK_1_9 (antibody, V domains shown)
VH: B1 VH with S16A, F27Y, N28T, Y60F, A61D, Q62P, A72T, E74T, T76A
VL: B1 VL with M4L, S10F, D70E, A84G
notes: human constant region
B33: CD81K13 HC 07-hVH_1_3 / LC 05-hVK_1_39 (antibody, V domains shown)
VH: B1 VH with S16A, F27Y, N28T, Y60F, A61D, Q62P, A72T, E74T, T76A
VL: B1 VL
notes: human constant region
B34: CD81K13 HC 07-hVH_1_3 / LC 5b-hVK_1_39 (antibody, V domains shown)
VH: B1 VH with S16A, F27Y, N28T, Y60F, A61D, Q62P, A72T, E74T, T76A
VL: B1 VL with A50G, S56D
notes: human constant region
B35: CD81K13 HC 07-hVH_1_3 / LC 5b-hVK_1_39-GA (antibody, V domains shown)
VH: B1 VH with S16A, F27Y, N28T, Y60F, A61D, Q62P, A72T, E74T, T76A
VL: B1 VL with A50G, S56D
notes: human constant region
B36: CD81K13 HC 07-hVH_1_3 / LC 06-hVK_1_39 (antibody, V domains shown)
VH: B1 VH with S16A, F27Y, N28T, Y60F, A61D, Q62P, A72T, E74T, T76A
VL: B1 VL with A84G
notes: human constant region
B37: CD81K13 HC 07-hVH_1_3 / LC 07-hVK_1_27 (antibody, V domains shown)
VH: B1 VH with S16A, F27Y, N28T, Y60F, A61D, Q62P, A72T, E74T, T76A
VL: B1 VL with A43V, F83V, A84G, H90K
notes: human constant region
B38: CD81K13 HC 04-hVH_1_69 / LC CD81K13 (antibody, V domains shown)
VH: EVQLVESGGGLVQPGRSLRLSCTASGFNFKDSYLHWVRQAPGQGLEWMGRIDTGNGNVKFDPKFQGRVTITADESTSTAYMELSSLRSEDTAVYYCVPYGYGFHSWGQGTLVTVSS
VL: DIQMTQSPASLSVSVGETVTITCRASENIYRTLAWYLQKQGKSPQLLVYGATTLADGVPSRFSGSGSGTQYYLKINSLQSEDFGTYHCQHFWGTPWTFGGGTKVEIK
notes: human constant region
B39: CD81K13 HC 04-hVH_1_69 / LC 01-hVK_3_15 (antibody, V domains shown)
VH: B38 VH
VL: EIVMTQSPATLSVSPGERATLSCRASENIYRTLAWYQQKPGQAPRLLIYGATTRATGIPARFSGSGSGTEFTLTISSLQSEDFGVYYCQHFWGTPWTFGQGTKVEIK
notes: human constant region
B40: CD81K13 HC 04-hVH_1_69 / LC 1b-hVK_3_15 (antibody, V domains shown)
VH: B38 VH
VL: B39 VL with R54L, T56D, G84A
notes: human constant region
B41: CD81K13 HC 04-hVH_1_69 / LC 1c-hVK_3_15 (antibody, V domains shown)
VH: B38 VH
VL: B39 VL with R54L, T56D
notes: human constant region
B42: CD81K13 HC 04-hVH_1_69 / LC 03-hVK_1_9 (antibody, V domains shown)
VH: B38 VH
VL: B1 VL with M4L, S10F, D70E
notes: human constant region
B43: CD81K13 HC 04-hVH_1_69 / LC 04-hVK_1_9 (antibody, V domains shown)
VH: B38 VH
VL: B1 VL with M4L, S10F, D70E, A84G
notes: human constant region
B44: CD81K13 HC 04-hVH_1_69 / LC 05-hVK_1_39 (antibody, V domains shown)
VH: B38 VH
VL: B1 VL
notes: human constant region

Biological target: T1, CD81 (UniProt P60033 1-236, limits assumed)
T1 construct: whole, on cells; also called CD81 receptor
T1 sequence (looked up): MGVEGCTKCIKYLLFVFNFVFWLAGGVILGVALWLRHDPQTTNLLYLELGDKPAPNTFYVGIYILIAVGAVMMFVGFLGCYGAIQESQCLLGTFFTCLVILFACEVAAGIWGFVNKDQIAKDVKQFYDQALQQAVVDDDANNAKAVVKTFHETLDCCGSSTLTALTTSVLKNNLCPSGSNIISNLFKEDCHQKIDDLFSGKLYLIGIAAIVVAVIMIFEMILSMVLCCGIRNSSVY
Test: cell ELISA;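 further: antibody binding to HuH7 cells expressing CD81 versus a CD81-negative HuH7 control line, bound antibody detected by secondary reagent, absorbance at 450 nm with 620 nm reference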
Protocol: For the binding cell ELISA assay, HuH7-Rluc-H3 (positive cell line expressing CD81) and HuH7-Rluc-L1 (negative control cell line) were propagated in F-12 DMEM medium with 10% FCS at 37° C. and 5% CO₂. On day 1, the cells were trypsinized at approximately 90% confluence and resuspended at 4×10⁵ cells/mL. […] On day 2, the antibody samples to be tested were prepared in a separate polypropylene round bottom plate with a twofold desired concentration with a final volume of 120 μl. All of the assay samples were diluted in cell culture medium. […] After fixation, each well was washed 3 times with 200 μL PBS/0.05% Tween. The secondary incubation step for detection of bound anti-CD81 antibodies was performed for 2 h at room temperature on a reciprocal shaker. […] Each well was washed three times with 200 μL PBS/0.05% Tween to remove unbound antibodies. […] The absorbance was read using the ELISA Tecan reader at 450 nm with 620 nm reference wavelength.

Binder | ELISA data
B1 | 0.525
B2 | 0.546
B3 | 0.552
B4 | 0.484
B5 | 0.787
B6 | 0.685
B7 | 0.692
B8 | 0.551
B9 | 0.603
B10 | 0.73
B11 | 0.695
B12 | 0.905
B13 | 0.463
B14 | 0.646
B15 | 0.522
B16 | 0.114
B17 | 0.788
B18 | 0.786
B19 | 0.858
B20 | 0.737
B21 | 0.684
B22 | 0.528

Binder | ELISA data
B23 | 0.11
B24 | 0.352
B25 | 0.371
B26 | 0.315
B27 | 0.388
B28 | 0.37
B29 | 0.323
B30 | 0.078
B31 | 0.331
B32 | 0.141
B33 | 0.4
B34 | 0.448
B35 | 0.363
B36 | 0.269
B37 | 0.073
B38 | 0.776
B39 | 0.513
B40 | 0.277
B41 | 0.395
B42 | 0.52
B43 | 0.459
B44 | 0.776
